According to the supplement of paper PMC10567573:

B1: SOAT2 (parent)
chain: SLGKQKVFIIRKSLLDELMEVQHF

Variants of: B1
Assay: protein stability index of a GFP-peptide fusion (GPS, HEK-293T) (PSI 1-6); higher = more stable
Conditions: c terminus: a fixed tail appended
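Further: lentivirally expressed fusions sorted by FACS into six bins by GFP to DsRed ratio, PSI derived from sequencing read proportions per bin multiplied by bin number.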

Point of comparison: SLGKQKVFIIRKSLLDELYEVQHF, protein stability index 1.36. Against it:
- SLHKQKVFIIRKSLLDELMEVQHF — higher, 3.41
- SLPKQKVFIIRKSLLDELMEVQHF — higher, 1.76
- SLRKQKVFIIRKSLLDELMEVQHF — higher, 2.98
- SLGKQKVFIIRKSLLDELMHVQHF — higher, 1.45
- SLGKQKVFIIRKSLLDELMMVQHF — higher, 2.66
- SLGKQKVFIIRKSLLDELMTVQHF — higher, 2.8
- SLGKQKVFIIRKSLLDELMNVQHF — higher, 3.04
- SLGKQKVFIIRKSLLDELMFVQHF — higher, 3.11
- SLGKQKVFIIRKSLLDELMPVQHF — higher, 1.45
- SLGKQKVFIIRKSLLDELMLVQHF — higher, 3.13
- SLGKQKVFIIRKSLLDELMKVQHF — higher, 2.57
- SLGKQKVFIIRKSLLDELMIVQHF — higher, 2.03
- SLGKQKVFIIRKSLLDELMSVQHF — higher, 2.48
- SLGKQQVFIIRKSLLDELMEVQHF — higher, 2.98
- SLGKQAVFIIRKSLLDELMEVQHF — higher, 2.08
- SLGKQLVFIIRKSLLDELMEVQHF — higher, 2.24
- SLGKQPVFIIRKSLLDELMEVQHF — higher, 1.96
- SLGKQTVFIIRKSLLDELMEVQHF — higher, 3.25
- SLGKQCVFIIRKSLLDELMEVQHF — higher, 3.68
- SLGKQFVFIIRKSLLDELMEVQHF — higher, 2.71
- SLGKQNVFIIRKSLLDELMEVQHF — higher, 1.6
- SLGKQWVFIIRKSLLDELMEVQHF — higher, 2.47
- SLGKCKVFIIRKSLLDELMEVQHF — higher, 2.75
- SLGKWKVFIIRKSLLDELMEVQHF — higher, 2.93
- SLGKHKVFIIRKSLLDELMEVQHF — higher, 2.05
- SLGKVKVFIIRKSLLDELMEVQHF — higher, 2.91
- SLGKLKVFIIRKSLLDELMEVQHF — higher, 3.31
- SLGKMKVFIIRKSLLDELMEVQHF — higher, 3.06
- SLGKRKVFIIRKSLLDELMEVQHF — higher, 3.01
- SLGKQKVFIIRKSLLDEIMEVQHF — higher, 2.71
- SLGKQKVFIIRKSLLDEMMEVQHF — higher, 1.7
- SLGKQKVFIIRKSLLDEGMEVQHF — higher, 2.62
- SLGKQKVFIIRKSLLDEYMEVQHF — higher, 2.46
- SLGKQKVFIIRKSLLDEKMEVQHF — higher, 2.11
- SLGKQKVFIIRKSLLDEEMEVQHF — higher, 1.8
- SLGKQKVFIERKSLLDELMEVQHF — higher, 1.47
- SLGKQKVFIYRKSLLDELMEVQHF — higher, 1.48
- SLGKQKVFIMRKSLLDELMEVQHF — higher, 3.04
- SLGKQKVFIRRKSLLDELMEVQHF — higher, 1.69
- SLGKQKVFIPRKSLLDELMEVQHF — higher, 2.08
- SLGKQKVFIARKSLLDELMEVQHF — higher, 1.9
- SLGKQKVFIKRKSLLDELMEVQHF — higher, 1.48
- SLGKQKVFITRKSLLDELMEVQHF — higher, 1.98
- SLGKQKVFIIRKSLLDELMEVQMF — higher, 1.69
- SLGKQKVFIIRKSLLDELMEVQQF — higher, 2.31
- SLGKQKVFIIRKSLLDELMEVQSF — higher, 1.79
- SLGKQKVFIIRKSLLDELMEVQVF — higher, 3.33
- SLGKQKVFIIRKSLLDELMEVQPF — higher, 2.65
- SLGKQKVFIIRKSLLDELMEVQGF — higher, 1.86
- SLGKQKQFIIRKSLLDELMEVQHF — higher, 1.82
- SLGKQKYFIIRKSLLDELMEVQHF — higher, 2.33
- SLGKQKCFIIRKSLLDELMEVQHF — higher, 2.4
- SLGKQKNFIIRKSLLDELMEVQHF — higher, 1.92
- SLGKQKLFIIRKSLLDELMEVQHF — higher, 3.44
- SLGKQKMFIIRKSLLDELMEVQHF — higher, 1.82
- SLGKQKHFIIRKSLLDELMEVQHF — higher, 1.59
- SLGKQKVFIIRKSLLDELVEVQHF — higher, 1.66
- SLGKQKVFIIRKSLLDELNEVQHF — higher, 3.23
- SLGKQKVFIIRKSLLDELPEVQHF — higher, 2.08
- SLGKQKVFIIRKSLLDELHEVQHF — higher, 2.93
- SLGKQKVFIIRKSLLDELWEVQHF — higher, 2.41
- SLGKQKVFIIRKSLLDELTEVQHF — higher, 1.74
- SLGKQKVFIIRKSLLDELIEVQHF — higher, 2.25
- SLGKQKVFIIRKSLLDELEEVQHF — higher, 1.69
- SLGKQKVFIIRKSLLDELKEVQHF — higher, 2.89
- SLGKQKVFIIRKSLLDELAEVQHF — higher, 3.02
- SLGKQKVFIIRKSLLDELREVQHF — higher, 1.94
- SLGKQKVFIIRKSALDELMEVQHF — higher, 2.72
- SLGKQKVFIIRKSQLDELMEVQHF — higher, 1.64
- SLGKQKVFIIRKSSLDELMEVQHF — higher, 3.11
- SLGKQKVFIIRKSRLDELMEVQHF — higher, 2.64
- SLGKQKVFIIRKSGLDELMEVQHF — higher, 2.2
- SLGKQKVFIIRKSPLDELMEVQHF — higher, 2.43
- SLGKQKVFIIRKSILDELMEVQHF — higher, 3.27
- SLGKQKVFIIRKSDLDELMEVQHF — higher, 2.19
- SLGKQKVFIIRKSYLDELMEVQHF — higher, 2.03
- SMGKQKVFIIRKSLLDELMEVQHF — higher, 2.25
- SCGKQKVFIIRKSLLDELMEVQHF — higher, 3.02
- SKGKQKVFIIRKSLLDELMEVQHF — higher, 1.44
- SHGKQKVFIIRKSLLDELMEVQHF — higher, 3.11
- SVGKQKVFIIRKSLLDELMEVQHF — higher, 3.51
- SAGKQKVFIIRKSLLDELMEVQHF — higher, 2.94
- SFGKQKVFIIRKSLLDELMEVQHF — higher, 3.72
- STGKQKVFIIRKSLLDELMEVQHF — higher, 3.3
- SLGKQKVFIIRKSLWDELMEVQHF — higher, 2.68
- SLGKQKVFIIRKSLPDELMEVQHF — higher, 1.56
- SLGKQKVFIIRKSLEDELMEVQHF — higher, 2.29
- SLGKQKVFIIRKSLDDELMEVQHF — higher, 2.38
- SLGKQKVFIIRKSLRDELMEVQHF — higher, 2.41
- SLGKQKVFIIRKSLFDELMEVQHF — higher, 3.01
- SLGKQKVFIIRKSLVDELMEVQHF — higher, 1.78
- SLGKQKVFIIRKSLNDELMEVQHF — higher, 1.88
- SLGKQKVFIIRKSLGDELMEVQHF — higher, 2.5
